The results in this text go back to patent publication US20180057888A1 (University of Texas, published 2018).

In the experiment the target is RNA Polymerase II (RNAPII), phospho-Ser2 C-terminal domain (pS2-CTD) (UniProt P24928 1-1970). In words: co-immunoprecipitation with anti-c-myc antibody, Western blot for RNAPII. As to the method:
Whole-cell lysates and nuclear extracts were prepared as previously described (Morales et al., 2014). See Supplementary Table S2 for a list of specific antibodies and dilutions used. Protein concentrations were determined by BCA Assay following manufacturer's instructions (Thermo Scientific). Normalized protein samples were separated on denaturing gradient gels (4-20% from BioRad) and were transferred to PVDF membranes for immunoblotting. After transfer, the membranes were first blocked with 1× Sigma Blocking Buffer for an hour at room temperature. The membranes were then incubated with the indicated primary antibodies diluted in 1× Sigma Blocking Buffer at 4° C. overnight. After this step, the membranes were washed with PBST (3×, 10 minutes each). HRP-conjugated secondary antibodies were diluted in 1× Sigma Blocking Buffer and incubated with the membranes at room temperature for 1 hr. […]
Log phase cells were plated in 10-cm dishes, and incubated after transfection with either empty pCMV-myc vector, myc-tagged wild-type K-H or myc-tagged mutant K-H (R106A) constructs for 48 hr using Lipofectamine 2000. […] Co-immunoprecipitated proteins (e.g., RNAPII) were analyzed by Western blot as previously described.
(In general: In western blotting, separated proteins are transferred to a membrane and probed.)

B1: myc-tagged mutant K-H (R106A) (other)
chain: MSSFSESALEKKLSELSNSQQSVQTLSLWLIHHRKHAGPIVSVWHRELRKAKSNRKLTFLYLANDVIQNSKRKGPEFTREFESVLVDAFSHVAREADEGCKKPLEALLNIWQERSVYGGEFIQQLKLSMEDSKSPPPKATEEKKSLKRTFQQIQEEEDDDYPGSYSPQDPSAGPLLTEELIKALQDLENAASGDATVRQKIASLPQEVQDVSLLEKITDKEAAERLSKTVDEACLLLAEYNGRLAAELEDRRQLARMLVEYTQNQKDVLSEKEKKLEEYKQKLARVTQVRKELKSHIQSLPDLSLLPNVTGGLAPLPSAGDLFSTD
notes: Expressed from a transfected myc-tagged construct and immunoprecipitated with anti-c-myc antibody; also called R106A mutant K-H; mutant R106A K-H; not shown: myc tag from the pCMV-myc vector
Take B1: the binding result is given as “no binding”.
